{"source": "the DeepSol protein solubility set"}
{"experiment": "soluble on expression in E. coli; label from the status in PepcDB or PDB records"}
{"sequence": "MEEQREALRKIIKTLAVKNEEIQSFIYSLKQMLLNVEANSAKVQEDLEAEFQSLFSLLEELKEGMLMKIKQDRASRTYELQNQLAACTRALESSEELLETANQTLQAMDSEDFPQAAKQIKDGVTMAPAFRLSLKAKVSDNMSHLMVDFAQERQMLQALKFLPVPSAPVIDLAESLVADNCVTLVWRMPDEDSKIDHYVLEYRRTNFEGPPRLKEDQPWMVIEGIRQTEYTLTGLKFDMKYMNFRVKACNKAVAGEFSEPVTLETPAFMFRLDASTSHQNLRVDDLSVEWDAMGGKVQDIKAREKDGKGRTASPINSPARGTPSPKRMPSGRGGRDRFTAESYTVLGDTLIDGGEHYWEVRYEPDSKAFGVGVAYRSLGRFEQLGKTAASWCLHVNNWLQVSFTAKHANKVKVLDAPVPDCLGVHCDFHQGLLSFYNARTKQVLHTFKTRFTQPLLPAFTVWCGSFQVTTGLQVPSAVRCLQKRGSATSSSNTSLT", "soluble on expression in E. coli": "soluble"}
{"sequence": "MHSTPKRVLLAGATGLTGEHLLDRILSEPTLAKVIAPARKALAEHPRLDNPVGPLAELLPQLDGSIDTAFCCLGTTIKEAGSEEAFRAVDFDLPLAVGKRALEMGARHYLVVSALGADAKSSIFYNRVKGELEQALQEQGWPQLTIARPSLLFGPREEFRLAEILAAPIARILPGKYHGIEACDLARALWRLALEEGKGVRFVESDELRKLGK", "soluble on expression in E. coli": "soluble"}
{"sequence": "AHHHHHHGSAELWEIVSFLDEYLKISEYPDKSSNGLQVEGKEEVNTIAFAVDACLDTIVKARAFNADMLIVHHGLIWGGVKYVKGLFAKRVKELLKSNMNLYAAHLPLDAHPEVGNNAQLLKLLGLEPKEKFGEYHGVMIGYIGEFEEEKPLPLIAQMLAEKLPVDYVKSYEFGVQEIKRVGVVSGGGGFAVEEASEKGVDLFITGEFTHEDYRAAEDLRLSVIAAGHYATETLGVKALMPILREKFGVKTIFIDSPTGL", "soluble on expression in E. coli": "not soluble"}
{"sequence": "MGSDKIHHHHHHLGNNAPRIIDFADSKGKGIIKYRYASMGAGQASSFQKKFTGKEPVEKIQHYLHVVFKEQLGKLYTAKTHEKMNLLSYYEFDNISAGKLKASIGNVYQGNIEANEFILHANSFPNPLNFYKNDLDTYLKNNNMYAFQSYVHGDLNGANIIIDAQDNVWIIDFFHTHRGHVLKDLVKLENDLLYIFSEMHSESDFQEALKISEVLFAVSDLQASLPDITQTGITKPSFVRVYKTLSYLRSLYSDLVEWDRNPLQVFIAQLRYSMHSLIFDECNQWQKEWALYNSGKFSQIISNKFLETDKLRIDFIKSDKIDAHSLALTILPGRKDYSRDLSEDLKEIKEQQIDCVVSLITKDEMDMYGVPELLDVYKKQGVECLHVPVIDQKIPVKAEIERINAFINAQQKKHKKVLIHCVGGLGRSGLVAACYLKSLGYPSDDAIKIVREARSSRAIESTEQEKFVYDYNERTV", "soluble on expression in E. coli": "not soluble"}
{"sequence": "MLEALRKCPTMFAVTSDGSSTMAKMDNSARQLALFVATTNGEFYQSNFGEEALETIKYQLGKDAGWGLFFDVLRNAFNGNCVSILARSEDTAHILCGKEDCSEKSALCFPIQKTEEDTSATILKCLVDANAVYANPKEEKNKVQKIMEELEKAKLQVRMLEEEVRVLCENNIWRRKQDTKNTLKIGKLRDNISRLSNQINPKAKEVSETSVGETSGPHAEDSYIPGRKLLRLVFEKKECKEYDVELLRLIKSRWPKTEGSKACNASNCLIDPYTESELPERLSRMSKKHKMVWGTLNGLDDWDYNVFELQAAIDGDDINCKNDQSGCGALFITMYALVVKYGFLRKFEINERIFLNWLSAVEGGYHANPYHNSMHAADVLHITHYLLSKGGLAELCKLNDRQVLAALFAAAIHDYNHPGINNNFSILTQTYNATLYNDRSVLENMHVASVFELMRNPALNILACFSEEHWRDFRNTVIDMVLATDMSLHEKYMTQFKRRLSEKRPFTEDCDQNLALAMALKLADISNCCRPLPLYLKWSERVSDEFYTQGDRERSLGMSCSPFMDRQTPMIAEGQTSFINYIFIPFLEVMAEFLPSMGFTLGLAAVCKSHRLVGNTGQGT", "soluble on expression in E. coli": "not soluble"}
{"sequence": "PEIKDHLIMVGFGFSGKTISKAAKAAGIPYIILETNPDIVKQEKTKGERIQYGDATFGAVQEHAGIRNARVLITGISDSVATRKIVEKAKELNPNIYVIAKVRNLQEMKHLHHLGADEIIPEEYETSVEIFVRLLEKYLV", "soluble on expression in E. coli": "not soluble"}
{"sequence": "MSLTSPSELRSGKTHRDENFPVASWIIHPRHRDLILAFYNFVRTADDIADHEMLDGDTKLEYLDLLEAELLGRGETQPEAVHLRRALAERGMPPRHALDLLTAFRMDVTKLRYEDWDEVIHYCRYSAMPVGRFMLDVHGESTTTWQASDALCAGLQINNHLQDCGKDYRTLNRVYLPRDVLDAAGAKVEDLGLQKSSPALLKCLQGLAVRTASLLGDGRPLAAEIKDYRLGLEVSVIQAYADRIVRMLQTRDPLSERVHLKPIEFVIASFGAMSSEIVRRSEGHHHHHH", "soluble on expression in E. coli": "soluble"}
{"sequence": "MSLMKSSPLVRQASTEKESTKSENLTEYLIEAIVEGQLAPGSKISEPELAKQFQVSRGPLREALMRVEGLGLIERIPHIGARVIQLSPTKLVELYAVREALEGMAARLAARNITEIELAGLESLLSTHSTHIDQVEGASYFHQQGDFDFHYRIIQACRNQQLIGLLCDELYHLLRMYRYQSPRSHSRPVEALEEHKFILRAIRQRDEELAEMLMRRHISRSRQLIEQQIMLDAQQQGEGHHHHHH", "soluble on expression in E. coli": "soluble"}
{"sequence": "MAHHHHHHMPGASDRGTAYVSCRIHCLPACFSRAVVAVCKLTSPAPGIPPLVSLCRYGLPGYSAQEGEAFSAAASGLHPRHQLPFVLSRVAASKAIASLSPDKRAACPGEEDGPAVVFTDRREAAPTLHGCCLSIAHEDSAAASVAWSVPSPDSSSFKDYHAAPERLYMEAQLVCSHSTLPDATATSFAYAIDVVNVAEVHRVRSRFPHFGQRWMPQCTTTASADDVGRALTCVQKQHQECVAAVGAPGGSHGGEGVSACQAACRRDEWWKHLVTPYVTEADAYAAVVLAQHWGVRECAVKLVGIPGRSFAYECVRALPPRGGAVVTESTPFTASFLMSHTLYSAEVHGAEAATLAQQRLHPLLYLYTWTEWVPLNSTVDLPYVVVLACAPCRSDAR", "soluble on expression in E. coli": "not soluble"}
{"sequence": "MAHHHHHHMLQQLNEEKNIRKALESRIREVNVSLRRYGVCIADAKEVTNESREFSEATDAFILAALEEKDTMDGDLCAKLQQQLRVKQRLTELRHQHQRKLDDMLRKYELIKTGRTTANNGAGADNNMLHPGLVDEAAAQQIKELLHRKDEEIERVIKEKEKTCDRIVKKLNKCELRIKELEATLEEERVQSTEERQELDRENRELQRYNQQLSVELETLRGQLSEMKEEMDFMERAKSAEIERWKEEAANGAGRLEEMRFKMAAYSELQKSYDRLQEQLQRTEVSLKEKSDNLENTRQMVKWSNSLLATEKQKVEQMEMMLKQQEVEMRRREEQLKSEMMNDINKQVAANNRRMQEQAAQYQELISQEQDKQKSIMKKVKSSRKETQKAAQRYDEMILENEALLSKLEELKVTSMRIFLEKQEAQRELEALRPTKHVANRRL", "soluble on expression in E. coli": "not soluble"}
{"sequence": "MDTIIYYSEMEGISLEHLKRSSGYDMRSNHFHNEYEIYFLTEGERLFFFNNRAYQVKKGSLILVDTNLIHMTHAPEDDTTGYTRIILYIDKFKMQQFDEKFPHLNLVPFFREHYGVYNLTQKQQEKFLHMYEVLKTEFSNRSRSYKALIEMEIIHYFIDFIRDNPELTPIKDETAIHKSSKYQ", "soluble on expression in E. coli": "not soluble"}
{"sequence": "MYTIAALYHFTRFADPADLKPALLDLCLAQGVKGTLLLAKEGINGTIAGPRAGIDAVLAHIRALPGCSDLEWKEATSDHPPFGKMKVRLKQEIVTMGQPDVDPRARVGHYVEPEDWNDLIRSDDVVLIDTRNDYEVAIGTFEGAIDPMTESFRDFPAWWEANKERFHNKRVAMFCTGGIRCEKSTNYLLGQGVEDVYHLKGGILRYLEEVPAENSTWQGECFVFDNRVSVGHGLVEGPHELCHGCRRPILPEDRNRPEYEHGVSCHLCIDETSEADKMRFRERQKQIALARARGEDHLATHLEHHHHHH", "soluble on expression in E. coli": "soluble"}
{"sequence": "METKEAIIHVIVATAEWGKDQLRYRRHRLAEFLAAQEETKEVIWVCPAPRAQGKEFQEVHSGIRQFAVKDLLQKKMFRFGRYTDVFYRHKLSPLLDELTPASANGERCCLWYTFPGFPLLSSLYSWDQVIYDCSDLWAAPISGRSNLLSEFRRKVIKSAELRIIQRADSITCSSDYLHKEVDKKLTAGREKVHTVENGVEYELFSANKQAPDRSILQGREGIVLGFIGGIKPKLDFKMIKEAALQKPDWTFLWVGPDATNGDVSFQELLRLPNVIWTGPADPKEVPHYMELIDIGIMPYKQSPYNQAVFPLKLFEFLAAGKPVVGTNLPSTSKMQKPYVYEYVEGDHPIDFIAACEKVLGQNGDETYKEMRRNIARTQDWNCLFRQIMKYTGIQKHAMAGDPLEHHHHHH", "soluble on expression in E. coli": "not soluble"}
{"sequence": "MSLTEKTDQTLMLIDGHSMAFRAFFALPAENFSTSGGQATNAVYGFLSMLSTLLKDEQPTHVAVAFDVGRKTFRTDMFPAYKAQREATPPEFKGQVEILKEVLSTLGITTIEKIDFEADDVIATLSVAAKPLGFKTLIVTGDRDSFQLVNDTTTVLYPMKGVSVLHRFTPEAVEEKYGLTPRQYPEFAALRGDPSDNLPNIPGVGEKTATKWIAQYETLDNLLDHADEIKGKVGASLRERIEQVRMNRKLTEMVKDLELPLGPDDFEMKPVQVAEVAAKFDDLEFGTNLRERVLAVVKAEGSAAPVEEVEAEQVVVDTQSLAQWLPARAGQALALALAGVAKPAAGDTYALAIADTKRHAVLVDVADISAEDEKALATWLASEDPKMLHGAKAAYHMLAGRGFELHGVVHDTAIAAYLLRPGQRTYELADVYQRHLQRQLSTNDNGGQLTLLDAADDQSLVDDVIAILELSEELTKQLQEIQAFELYHDLEIPLSGILARMEAIGEGHHHHHH", "soluble on expression in E. coli": "soluble"}
{"sequence": "MDVTCNIKNGRCEQFCKNSADNKVVCSCTEGYRLAENQKSCEPAVPFPCGRVSVSQTSK", "soluble on expression in E. coli": "soluble"}
{"sequence": "MFSDTDISMMENALRLAALGRFSTSPNPRVGCVIAHGSQIVGQGFHVKAGEPHAEVHALRQAGEMAQGATAFVTLEPCSHYGRTPPCAEALVRAGVSRVVAAMRDPNPLVAGKGLALLEAAGIKTECGLLEHQARELNRGFLSRIERRRPFVRLKCAVSLDGKTALSDGSSFWITGEDARADVQVLRAESCAVLTGIGTVLADNPRLNVRAFPTLRQPARIVLDSRLRLPPNSHLVTDGQSPTYIATLERNEDRLHPYREHAHVRILMPSETADSKIDLHHLMRLLADEGFGEIMVEAGSELTSAFLAENLADEIVLYRSPKILGSGKDLFSLLENRAALSAPPLWTPVSSEILGHNIKTVFRKNGNAF", "soluble on expression in E. coli": "soluble"}
{"sequence": "MGSDKIHHHHHHAQYTNIQTWGQKLYYNGSDYPGTFLKLKVAVANPRISGTGGKVVFYDSESSQYNYIEVKGVYQSSDARLKTNITPLNSGLGTILGLKPVSYNWKSETSQLRSAEAVPSKAFGFLAQEVAEVMPEIVTLSSTGDSLVDYTAVIPVLVQAVKELDATIQQLELQLDEKANLSDLQNNKNLTSKSLLSNAVMNQNTPNPFNSTTNISFTIPTSARSAFISICNLQGTQVKKFDIATRGEGSIMVSFSDLGVAGMYMYSLVVDGQLISTKRMLLVQ", "soluble on expression in E. coli": "not soluble"}
{"sequence": "MKFKQIILAGAVLATSTFTSLTNAQAETGFRDVPSDHWSYNAIMGLKEKNIVAGYGNGMFGFGDNITRGQVARLIYAYLKPADEHNAPNPFTDVKGHMFEKEILSLSKAGIMNGFGDGKFGPDNVLTREQLAVVLTKAFNFKATSTTTFKDVDKNYWATNAISALQENKIAAGTGDNLFEPKNIVTREQYAQFLYNAMNTVEVKPELTPFGIPSSMITNDFYYNSNNWKNASPVLKKSVSNEAQNLITKINKKYNEDYKYESASVSSMGLPESVQLRTSNPNLGRVYDLGQGQFFVQGENEHDFYIMFIIDNATVELAKSWITLINSDLNLDKEINDVIAMPSQKARGRDYHTYLDKGKYQIELGTSPQTKGYDSLFIGIKRK", "soluble on expression in E. coli": "not soluble"}
{"sequence": "MGHHHHHHSHMGVPYSVLEPVLERCTPDQLYRIEEYNHVLIEETDQLWKVHCHRDFKEERPEEYESWREMYLRLQDAREQRLRVLTKNIQFAHANKP", "soluble on expression in E. coli": "soluble"}
